Measured values: PMC6241527

Columns and labels:
[1] = molecular target: H7 hemagglutinin (A/Shanghai/2/13) (influenza A virus (A/Shanghai/2/13, H7)); assay: crystal structure
[2] = molecular target: H1 hemagglutinin (A/Solomon Islands/3/06) (influenza A virus (A/Solomon Islands/3/06, H1)); assay: crystal structure

Substance | stoichiometry N [1] | stoichiometry N [2]
H7 hemagglutinin (A/Shanghai/2/13) (natural protein) | 3 | –
H1 hemagglutinin (A/Solomon Islands/3/06) (natural protein) | – | 3
